Data published in IntAct's records for PubMed 16977309.

Columns and labels:
csk21_human CSNK2A1 = csk21_human CSNK2A1 (UniProt P68400)
csk21_rat Csnk2a1 = csk21_rat Csnk2a1 (UniProt P19139)
csk2b_human CSNK2B = csk2b_human CSNK2B (UniProt P67870)
gga3_human GGA3 = biological target: T1, gga3_human GGA3 (UniProt Q9NZ52)
T1 sequence: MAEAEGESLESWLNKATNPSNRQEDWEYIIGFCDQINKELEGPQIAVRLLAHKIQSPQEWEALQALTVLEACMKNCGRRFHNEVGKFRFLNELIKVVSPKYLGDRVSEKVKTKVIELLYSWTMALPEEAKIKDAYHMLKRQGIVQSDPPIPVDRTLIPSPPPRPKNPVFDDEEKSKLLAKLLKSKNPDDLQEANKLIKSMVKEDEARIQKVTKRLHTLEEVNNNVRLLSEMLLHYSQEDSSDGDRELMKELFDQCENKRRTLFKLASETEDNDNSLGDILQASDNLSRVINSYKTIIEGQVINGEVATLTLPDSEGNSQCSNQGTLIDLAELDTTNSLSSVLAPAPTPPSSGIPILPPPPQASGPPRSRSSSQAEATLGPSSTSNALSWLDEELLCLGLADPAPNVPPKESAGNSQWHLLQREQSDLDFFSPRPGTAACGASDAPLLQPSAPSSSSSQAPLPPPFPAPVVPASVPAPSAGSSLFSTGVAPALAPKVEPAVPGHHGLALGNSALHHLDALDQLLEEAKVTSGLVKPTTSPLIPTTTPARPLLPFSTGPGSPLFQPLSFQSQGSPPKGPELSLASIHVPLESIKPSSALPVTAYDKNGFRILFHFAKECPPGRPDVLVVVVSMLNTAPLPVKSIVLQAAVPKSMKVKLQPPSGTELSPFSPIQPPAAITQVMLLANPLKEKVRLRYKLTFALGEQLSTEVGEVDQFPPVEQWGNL

csk21_human CSNK2A1, sequence (P68400 whole entry, looked up): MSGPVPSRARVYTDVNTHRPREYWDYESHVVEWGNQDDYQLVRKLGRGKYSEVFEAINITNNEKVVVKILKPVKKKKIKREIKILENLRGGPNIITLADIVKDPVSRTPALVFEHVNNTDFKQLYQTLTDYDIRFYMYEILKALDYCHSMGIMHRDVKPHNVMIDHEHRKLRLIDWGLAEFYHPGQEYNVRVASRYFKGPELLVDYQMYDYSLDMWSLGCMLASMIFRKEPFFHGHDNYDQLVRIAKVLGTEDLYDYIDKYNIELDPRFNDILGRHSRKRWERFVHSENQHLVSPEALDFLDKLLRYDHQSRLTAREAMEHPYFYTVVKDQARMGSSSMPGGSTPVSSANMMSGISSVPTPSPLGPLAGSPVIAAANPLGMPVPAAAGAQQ
csk2b_human CSNK2B, sequence (P67870 whole entry): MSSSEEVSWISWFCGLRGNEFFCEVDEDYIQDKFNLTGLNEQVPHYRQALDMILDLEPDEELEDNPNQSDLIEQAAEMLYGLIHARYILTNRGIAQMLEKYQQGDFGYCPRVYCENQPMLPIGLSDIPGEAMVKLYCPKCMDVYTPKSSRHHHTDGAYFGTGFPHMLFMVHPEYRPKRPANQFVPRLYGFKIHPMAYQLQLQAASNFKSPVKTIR
csk21_rat Csnk2a1, sequence (P19139 whole entry, looked up): as the sequence (P68400 whole entry, looked up) above, with G335S, S337A, S338G, P340A, P378S, M381I counted along it

Row | effect of a mutation on the interaction (csk21_human CSNK2A1) | effect of a mutation on the interaction (csk21_rat Csnk2a1) | effect of a mutation on the interaction (csk2b_human CSNK2B) | effect of a mutation on the interaction (gga3_human GGA3) | Substance
1 | disrupting interaction | disrupting interaction strength | disrupting interaction |  | Phosphofurin acidic cluster sorting protein 1 (Homo sapiens) (from UniProt Q6VY07) R196A;R197A;K198A;R199A;Y200A
2 |  |  |  | disrupting interaction | Phosphofurin acidic cluster sorting protein 1 (Homo sapiens) (from UniProt Q6VY07) Y251A
3 |  |  |  | disrupting interaction | Phosphofurin acidic cluster sorting protein 1 (Homo sapiens) (from UniProt Q6VY07) K249W
